Measured values published in patent US10398755B2, “Clusterin pharmaceuticals and treatment methods using the same” (UNIVERSITY OF SOUTHERN CALIFORNIA, priority 2009, dated 2019).

Key:
[1] = tested on: pro-MMP-9, MMP-9, MMP-9-ΔC; experiment: In vitro protein binding assay (CLU-His pull-down, gelatin zymography), MMP-9 forms; design: species or system mouse
Procedure: (A) Recombinant proteins, Pro-MMP-9, MMP-9, MMP-9-ΔC, CLU-His were incubated together, and bound to agarose beads coupled or uncoupled with Anti-(His)6 antibody in two different binding buffers containing Brij 35 concentrations, 0.04% or 0.002%. MMPs bound to the beads were obtained by washing with the corresponding binding buffer to resolve on gelatin zymography. Three different volumes of each sample were loaded to compare the relative density. (B) Pro-MMP-9 bound to CLU coupled to agarose beads, prepared as in (A), was incubated in the presence or absence of APMA for 1 h at RT, prior to separation of beads (B) and supernatant (S) fractions, which were resolved by zymography. Arrow indicates MMP-9 processed by APMA.
A mixture of MMP-2, MMP-9, and C-terminal truncated MMP-9 (9-ΔC) was incubated with His-tagged CLU, used in a pull-down assay and resolved on a gelatin zymography gel. The input and bound samples were loaded in a series of dilution.
To make various processed forms of MMPs, pro-MMPs were incubated with 1 mM APMA in TSCB buffer at 37° C. for 4 h to make C-terminal truncated processed MMP-9 (MMP-9-ΔC) [Murphy, 1995]. CLU-His (2.5 μg) was incubated with mixture of 30-100 ng of pro-MMP-9, MMP-9, and MMP-9-ΔC, in the TSCB buffer with 0.002 or 0.04% Brij 35 for 1 h at 4° C. followed by additional incubation for 1.5 h with anti-His tag antibody-conjugated agarose beads. The beads were washed three times with the binding buffer, and dissolved in 1×SDS sample loading buffer. Relative amounts of bound MMPs were assessed on the gelatin zymography. In order to perform CLU binding domain analysis, pro-MMP-9 bound to CLU-coupled beads was prepared, as described above, and then divided into two aliquots. They were incubated with and without 1 mM APMA at RT for 1 h in TSCB buffer on the rotator. The beads (B) were spun down and solution (S) was separated. The beads were washed with TSCB and resuspended in SDS sample loading buffer. Equivalent volume of S and B fraction were subjected to gelatin zymography.
Next, we tested the interaction of secreted CLU using mouse recombinant proteins. We used purified recombinant proteins of MMP-2, MMP-9, and CLU that were secreted from a mouse myeloma cell line (NSO). All of the proteins were purchased from R&D Systems. A mixture of MMP-2, MMP-9, and C-terminal truncated MMP-9 (9-ΔC) was incubated with His-tagged CLU, and subjected to the pull-down assay, using 150 mM NaCl-containing binding buffer and anti-His tag antibody resins. Portions of the input samples (Input) and proteins bound to the antibody (Bound) were resolved on the gelatin zymography gel.
The recombinant CLU contains a (His)6-Tag at the C-terminus of the protein, which was used for pull-down experiments with anti-His tag antibody beads. It was previously reported that CLU also binds to MT6-MMP/mmp-25 and that the hemopexin domain in the MMP C-terminal region is required for their interaction (Matsuda et al., 2003). To use as an internal control for the binding experiment, we removed part of MMP-9 (MMP-9-ΔC) by promoting self-processing by APMA (4-aminophenylmercuric acetate) treatment. For the in vitro binding assay we mixed MMP-2, MMP-9, and MMP-9-ΔC (FIG. 7).
Since different detergent concentrations affected the extent of inhibition of MMP-9 activity by CLU, we tested whether detergents may influence the binding affinity of CLU for MMP-9. To test this possibility, CLU pull down assay was performed. […]

HA-tagged MMP-9 = target: T1, HA-tagged MMP-9 (Mus musculus, UniProt P41245); experiment: Immunoprecipitation assay in co-transfected HEK293 cells; assay type: cell-based
T1 construct: carrying the mouse full length cDNA of Myc-tagged CLU (CLU) or HA-tagged MMP-9 (MMP-9) were transfected; expressed in transfected cells; host or cells: HEK293
T1 sequence (P41245 108-730): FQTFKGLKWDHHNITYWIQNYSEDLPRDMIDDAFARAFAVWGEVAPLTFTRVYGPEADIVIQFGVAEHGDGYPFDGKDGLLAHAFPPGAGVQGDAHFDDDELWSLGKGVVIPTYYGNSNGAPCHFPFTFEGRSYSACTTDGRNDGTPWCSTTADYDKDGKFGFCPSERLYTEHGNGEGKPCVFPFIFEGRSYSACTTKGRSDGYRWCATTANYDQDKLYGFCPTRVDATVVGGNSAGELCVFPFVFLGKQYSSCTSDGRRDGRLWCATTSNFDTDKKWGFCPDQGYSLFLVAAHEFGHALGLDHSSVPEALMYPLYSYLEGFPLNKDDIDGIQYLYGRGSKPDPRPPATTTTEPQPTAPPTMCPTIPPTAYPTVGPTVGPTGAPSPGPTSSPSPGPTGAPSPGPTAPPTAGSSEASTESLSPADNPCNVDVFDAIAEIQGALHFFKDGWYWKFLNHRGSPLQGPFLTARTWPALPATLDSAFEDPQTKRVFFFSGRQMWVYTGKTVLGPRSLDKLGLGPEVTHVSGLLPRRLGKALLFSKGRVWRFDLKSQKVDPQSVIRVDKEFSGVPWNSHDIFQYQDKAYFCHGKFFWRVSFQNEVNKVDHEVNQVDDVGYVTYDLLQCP
Procedure: (A) pcDNA 3.1 (+) expression vectors carrying the mouse full length cDNA of Myc-tagged CLU (CLU) or HA-tagged MMP-9 (MMP-9) were transfected, alone (CLU or MMP-9) or combined (CLU+MMP-9), into HEK293 cells. Using the whole cell lysates of the transfected cells, immunoprecipitation (IP) with anti-HA antibody was performed to pull down MMP-9, and then the eluted samples were subjected to immunoblotting (denaturing 4-15% gradient SDS/PAGE gel) (IB) using anti-Myc antibody to detect CLU. The bands indicated by arrows are consistent to the forms of CLU undergoing intracellular processing. in, whole cell lysate used as input; IP, immunoprecipitated sample; Unc, Uncleaved CLU protein; β, β subunit of CLU. (B) Confocal microscopy of MMP-9 and CLU in HCLE cells. Nuclei were stained with DAPI, MMP-9 was detected by rhodamine-conjuated antibody, and CLU by FITC-conjugated antibody. In control, primary antibodies were omitted. The images were taken at 400× magnification. […]
Next, we tested whether MMP-9/CLU interaction also occurs in vivo. […] We also recognized that a stronger band of ˜50 KDa, compared with the other two IP lanes, was detected in co-transfected IP lane, which might be a non-glycosylated full-length form of CLU. […]

binding of C-terminal truncated MMP-9 to His-tagged CLU ([1]; 150 mM NaCl binding buffer): did not
binding of MMP-9 to His-tagged CLU (bound vs input) ([1]; 150 mM NaCl binding buffer): highly enriched in the bound sample
B1: CLU: secreted disulfide-linked heterodimeric glycoprotein (70-80 KD); assays used recombinant mouse CLU with C-terminal (His)6 (protein, UniProt Q06890 22-448, looked up)
Clusterin: EQEVSDNELQELSTQGSRYINKEIQNAVQGVKHIKTLIEKTNAERKSLLNSLEEAKKKKEDALEDTRDSEMKLKAFPEVCNETMMALWEECKPCLKHTCMKFYARVCRSGSGLVGQQLEEFLNQSSPFYFWMNGDRIDSLLESDRQQSQVLDAMQDSFARASGIIDTLFQDRFFARELHDPHYFSPIGFPHKRPHFLYPKSRLVRSLMSPSHYGPPSFHNMFQPFFEMIHQAQQAMDVQLHSPAFQFPDVDFLREGEDDRTVCKEIRRNSTGCLKMKGQCEKCQEILSVDCSTNNPAQANLRQELNDSLQVAERLTEQYKELLQSFQSKMLNTSSLLEQLNDQFNWVSQLANLTQGEDKYYLRVSTVTTHSSDSEVPSRVTEVVVKLFDSDPITVVLPEEVSKDNPKFMDTVAEKALQEYRRKSRAE
modifications: C-terminal His6 tag
binding of MMP-9 and MMP-9-ΔC to CLU at high detergent ([1]; 0.04% Brij 35): do not bind to CLU at the high Brij 35 concentration
co-immunoprecipitation of Myc-tagged CLU with HA-tagged MMP-9 (HA-tagged MMP-9): interact in vivo even before processing of the proteins
